Consider six molecules from patent publication US20130005646A1 (Novo Nordisk, published 2013).

Starred links: 1 amine or outer side, 2 acyl side, 3 side chain; linkers in the order of their positions; H or OH if unused. Positions of bridges follow the written chain, without caps; N, C: chain ends. Primed or numbered codes have the meaning given here. *: point of attachment. C18 diacid′ = 17-carboxyheptadecanoyl on γGlu amine: (S)-4-carboxy-4-(17-carboxyheptadecanoylamino)butyryl; C20 diacid = O=C(O)CCCCCCCCCCCCCCCCCCC(=O)*; C18 diacid = O=C(O)CCCCCCCCCCCCCCCCC(=O)*; γGlu = O=C(O)[C@H](CCC(=O)[*:2])N[*:1]

Common to all, as to assay: cell-based or functional assay
Assay [1] deals with T1, human calcitonin (a) receptor (human, UniProt P30988 25-474).
T1 sequence (looked up): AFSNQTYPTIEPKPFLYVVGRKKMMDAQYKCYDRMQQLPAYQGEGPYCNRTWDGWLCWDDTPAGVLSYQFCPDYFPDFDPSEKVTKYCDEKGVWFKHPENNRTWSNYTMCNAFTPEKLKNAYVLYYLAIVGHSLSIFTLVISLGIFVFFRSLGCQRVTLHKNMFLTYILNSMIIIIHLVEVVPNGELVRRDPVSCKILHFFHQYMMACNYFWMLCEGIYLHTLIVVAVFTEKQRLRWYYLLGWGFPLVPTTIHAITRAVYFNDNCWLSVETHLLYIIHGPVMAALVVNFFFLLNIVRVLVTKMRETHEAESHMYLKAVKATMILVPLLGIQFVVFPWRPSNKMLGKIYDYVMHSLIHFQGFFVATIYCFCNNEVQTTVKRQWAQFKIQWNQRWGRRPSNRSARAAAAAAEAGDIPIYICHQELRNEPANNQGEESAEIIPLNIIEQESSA

Assay [2] concerns the target T2, human amylin 3(a) receptor (human calcitonin receptor + RAMP-3) (human, UniProt P30988 25-474; O60896 24-148).
T2 sequence (looked up) 1: T1 sequence (looked up)
T2 sequence (looked up) 2: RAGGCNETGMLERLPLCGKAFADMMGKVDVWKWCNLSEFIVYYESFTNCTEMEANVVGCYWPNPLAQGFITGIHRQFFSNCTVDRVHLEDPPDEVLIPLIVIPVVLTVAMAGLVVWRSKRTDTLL

In assay [3] the target is T3, rat calcitonin (a) receptor (rat, UniProt P32214 25-516).
T3 sequence (looked up): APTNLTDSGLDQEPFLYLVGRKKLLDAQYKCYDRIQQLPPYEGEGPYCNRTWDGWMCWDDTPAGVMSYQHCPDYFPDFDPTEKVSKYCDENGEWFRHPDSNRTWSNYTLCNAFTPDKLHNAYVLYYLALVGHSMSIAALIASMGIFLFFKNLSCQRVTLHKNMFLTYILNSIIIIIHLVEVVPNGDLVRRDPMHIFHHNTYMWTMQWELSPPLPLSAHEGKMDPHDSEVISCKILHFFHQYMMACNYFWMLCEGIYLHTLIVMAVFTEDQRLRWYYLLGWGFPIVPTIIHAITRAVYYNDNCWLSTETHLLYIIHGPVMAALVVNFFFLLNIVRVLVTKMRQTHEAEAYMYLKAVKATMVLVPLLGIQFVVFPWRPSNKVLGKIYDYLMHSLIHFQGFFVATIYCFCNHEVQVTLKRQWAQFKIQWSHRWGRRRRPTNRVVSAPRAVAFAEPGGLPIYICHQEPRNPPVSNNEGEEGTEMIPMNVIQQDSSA

The target in assay [4] is T4, rat amylin 3(a) receptor (rat calcitonin(a) receptor + rat RAMP3) (rat, UniProt P32214 25-516; Q9JJ73 23-147).
T4 sequence (looked up) 1: T3 sequence (looked up)
T4 sequence (looked up) 2: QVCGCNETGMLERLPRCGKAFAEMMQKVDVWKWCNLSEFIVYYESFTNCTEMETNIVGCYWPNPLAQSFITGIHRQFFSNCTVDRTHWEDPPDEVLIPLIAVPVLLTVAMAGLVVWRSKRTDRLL

B1: N-alpha-[(S)-4-Carboxy-4-(19-carboxynonadecanoylamino)butyryl]-His-[Glu14,His17,His35]-pramlintide (peptide)
peptide: {C20 diacid-γGlu}-HKCNTATCATQRLAEFLHHSSNNFGPILPPTNVGSHTY-NH2
modifications: disulfide 3-8
SMILES: CC[C@H](C)[C@H](NC(=O)[C@@H]1CCCN1C(=O)CNC(=O)[C@H](Cc1ccccc1)NC(=O)[C@H](CC(N)=O)NC(=O)[C@H](CC(N)=O)NC(=O)[C@H](CO)NC(=O)[C@H](CO)NC(=O)[C@H](Cc1c[nH]cn1)NC(=O)[C@H](Cc1c[nH]cn1)NC(=O)[C@H](CC(C)C)NC(=O)[C@H](Cc1ccccc1)NC(=O)[C@H](CCC(=O)O)NC(=O)[C@H](C)NC(=O)[C@H](CC(C)C)NC(=O)[C@H](CCCNC(=N)N)NC(=O)[C@H](CCC(N)=O)NC(=O)[C@@H](NC(=O)[C@H](C)NC(=O)[C@@H]1CSSC[C@H](NC(=O)[C@H](CCCCN)NC(=O)[C@H](Cc2c[nH]cn2)NC(=O)CC[C@H](NC(=O)CCCCCCCCCCCCCCCCCCC(=O)O)C(=O)O)C(=O)N[C@@H](CC(N)=O)C(=O)N[C@@H]([C@@H](C)O)C(=O)N[C@@H](C)C(=O)N[C@@H]([C@@H](C)O)C(=O)N1)[C@@H](C)O)C(=O)N[C@@H](CC(C)C)C(=O)N1CCC[C@H]1C(=O)N1CCC[C@H]1C(=O)N[C@H](C(=O)N[C@@H](CC(N)=O)C(=O)N[C@H](C(=O)NCC(=O)N[C@@H](CO)C(=O)N[C@@H](Cc1c[nH]cn1)C(=O)N[C@H](C(=O)N[C@@H](Cc1ccc(O)cc1)C(N)=O)[C@@H](C)O)C(C)C)[C@@H](C)O
As to B1, the “CTa receptor human EC50” value in assay [1] was found to be 210 pM. Also, in assay [2], the “Amylin receptor human EC50” value is 182 pM. Moreover, in assay [3], the “CTa receptor rat EC50” value worked out at 656 pM. Also, in assay [4], the “Amylin receptor rat EC50” value came to 305 pM.

Turning to {C18 diacid′-γGlu}-EKCNTATCATQRLAEFLRHSSNNFGPILPPTNVGSHTY-NH2 (disulfide 3-8) [N-alpha-[(S)-4-Carboxy-4-(17-carboxyheptadecanoylamino)butyryl]-Glu-[Glu14,Arg17,His35]-pramlintide], in assay [1], the “CTa receptor human EC50” value is 1070 pM. Moreover, in assay [2], the “Amylin receptor human EC50” value was 172 pM. For the same molecule, the “CTa receptor rat EC50” value in assay [3] is 17600 pM. In addition, the “Amylin receptor rat EC50” value in assay [4] was found to be 281 pM.

B2: N-alpha-[(S)-4-Carboxy-4-(19-carboxynonadecanoylamino)butyryl]-[Glu14,Arg17,Ala25,Pro26,Ser28,Ser29,His35]-pramlintide (peptide)
peptide: {C20 diacid-γGlu}-KCNTATCATQRLAEFLRHSSNNFGAPLSSTNVGSHTY-NH2
modifications: disulfide 2-7
SMILES: CC(C)C[C@H](NC(=O)[C@H](CCCNC(=N)N)NC(=O)[C@H](CCC(N)=O)NC(=O)[C@@H](NC(=O)[C@H](C)NC(=O)[C@@H]1CSSC[C@H](NC(=O)[C@H](CCCCN)NC(=O)CC[C@H](NC(=O)CCCCCCCCCCCCCCCCCCC(=O)O)C(=O)O)C(=O)N[C@@H](CC(N)=O)C(=O)N[C@@H]([C@@H](C)O)C(=O)N[C@@H](C)C(=O)N[C@@H]([C@@H](C)O)C(=O)N1)[C@@H](C)O)C(=O)N[C@@H](C)C(=O)N[C@@H](CCC(=O)O)C(=O)N[C@@H](Cc1ccccc1)C(=O)N[C@@H](CC(C)C)C(=O)N[C@@H](CCCNC(=N)N)C(=O)N[C@@H](Cc1c[nH]cn1)C(=O)N[C@@H](CO)C(=O)N[C@@H](CO)C(=O)N[C@@H](CC(N)=O)C(=O)N[C@@H](CC(N)=O)C(=O)N[C@@H](Cc1ccccc1)C(=O)NCC(=O)N[C@@H](C)C(=O)N1CCC[C@H]1C(=O)N[C@@H](CC(C)C)C(=O)N[C@@H](CO)C(=O)N[C@@H](CO)C(=O)N[C@H](C(=O)N[C@@H](CC(N)=O)C(=O)N[C@H](C(=O)NCC(=O)N[C@@H](CO)C(=O)N[C@@H](Cc1c[nH]cn1)C(=O)N[C@H](C(=O)N[C@@H](Cc1ccc(O)cc1)C(N)=O)[C@@H](C)O)C(C)C)[C@@H](C)O
In the case of B2, the “CTa receptor human EC50” value in assay [1] stood at 342 pM. Besides, the “Amylin receptor human EC50” value in assay [2] turned out to be 217 pM. Also, the “CTa receptor rat EC50” value in assay [3] turned out to be 5350 pM. Further, in assay [4], the “Amylin receptor rat EC50” value was 1330 pM.

B3: N-alpha-[(S)-4-Carboxy-4-(19-carboxynonadecanoylamino)butyryl]-Glu-[Glu14,Arg17,His35]-pramlintide (peptide)
peptide: {C20 diacid-γGlu}-EKCNTATCATQRLAEFLRHSSNNFGPILPPTNVGSHTY-NH2
modifications: disulfide 3-8
SMILES: CC[C@H](C)[C@H](NC(=O)[C@@H]1CCCN1C(=O)CNC(=O)[C@H](Cc1ccccc1)NC(=O)[C@H](CC(N)=O)NC(=O)[C@H](CC(N)=O)NC(=O)[C@H](CO)NC(=O)[C@H](CO)NC(=O)[C@H](Cc1c[nH]cn1)NC(=O)[C@H](CCCNC(=N)N)NC(=O)[C@H](CC(C)C)NC(=O)[C@H](Cc1ccccc1)NC(=O)[C@H](CCC(=O)O)NC(=O)[C@H](C)NC(=O)[C@H](CC(C)C)NC(=O)[C@H](CCCNC(=N)N)NC(=O)[C@H](CCC(N)=O)NC(=O)[C@@H](NC(=O)[C@H](C)NC(=O)[C@@H]1CSSC[C@H](NC(=O)[C@H](CCCCN)NC(=O)[C@H](CCC(=O)O)NC(=O)CC[C@H](NC(=O)CCCCCCCCCCCCCCCCCCC(=O)O)C(=O)O)C(=O)N[C@@H](CC(N)=O)C(=O)N[C@@H]([C@@H](C)O)C(=O)N[C@@H](C)C(=O)N[C@@H]([C@@H](C)O)C(=O)N1)[C@@H](C)O)C(=O)N[C@@H](CC(C)C)C(=O)N1CCC[C@H]1C(=O)N1CCC[C@H]1C(=O)N[C@H](C(=O)N[C@@H](CC(N)=O)C(=O)N[C@H](C(=O)NCC(=O)N[C@@H](CO)C(=O)N[C@@H](Cc1c[nH]cn1)C(=O)N[C@H](C(=O)N[C@@H](Cc1ccc(O)cc1)C(N)=O)[C@@H](C)O)C(C)C)[C@@H](C)O
As to B3, the “CTa receptor human EC50” value in assay [1] stood at 606 pM. Moreover, in assay [2], the “Amylin receptor human EC50” value was determined as 116 pM. Moreover, the “CTa receptor rat EC50” value in assay [3] turned out to be 2230 pM. Moreover, in assay [4], the “Amylin receptor rat EC50” value is 63 pM.

B4: N-alpha-[(S)-4-Carboxy-4-(17-carboxyheptadecanoylamino)butyryl]-[Glu14,His17,His35]-pramlintide (peptide)
peptide: {C18 diacid-γGlu}-KCNTATCATQRLAEFLHHSSNNFGPILPPTNVGSHTY-NH2
modifications: disulfide 2-7; not fully specified; printed as N-alpha-[(S)-4-Carboxy-4-(17-carboxyheptadecanoylamino)butyryl]-[Glu14,His17,His35]-pramlintide
For B4, the “CTa receptor human EC50” value in assay [1] is 60.5 pM. Besides, the “Amylin receptor human EC50” value in assay [2] was 56 pM. Besides, the “CTa receptor rat EC50” value in assay [3] was 148 pM. Besides, in assay [4], the “Amylin receptor rat EC50” value was found to be 23 pM.

B5: N-alpha-[(S)-4-Carboxy-4-(17-carboxyheptadecanoylamino)butyryl]-[Glu14,Arg17,His35]-pramlintide (peptide)
peptide: {C18 diacid-γGlu}-KCNTATCATQRLAEFLRHSSNNFGPILPPTNVGSHTY-NH2
modifications: disulfide 2-7
SMILES: CC[C@H](C)[C@H](NC(=O)[C@@H]1CCCN1C(=O)CNC(=O)[C@H](Cc1ccccc1)NC(=O)[C@H](CC(N)=O)NC(=O)[C@H](CC(N)=O)NC(=O)[C@H](CO)NC(=O)[C@H](CO)NC(=O)[C@H](Cc1c[nH]cn1)NC(=O)[C@H](CCCNC(=N)N)NC(=O)[C@H](CC(C)C)NC(=O)[C@H](Cc1ccccc1)NC(=O)[C@H](CCC(=O)O)NC(=O)[C@H](C)NC(=O)[C@H](CC(C)C)NC(=O)[C@H](CCCNC(=N)N)NC(=O)[C@H](CCC(N)=O)NC(=O)[C@@H](NC(=O)[C@H](C)NC(=O)[C@@H]1CSSC[C@H](NC(=O)[C@H](CCCCN)NC(=O)CC[C@H](NC(=O)CCCCCCCCCCCCCCCCC(=O)O)C(=O)O)C(=O)N[C@@H](CC(N)=O)C(=O)N[C@@H]([C@@H](C)O)C(=O)N[C@@H](C)C(=O)N[C@@H]([C@@H](C)O)C(=O)N1)[C@@H](C)O)C(=O)N[C@@H](CC(C)C)C(=O)N1CCC[C@H]1C(=O)N1CCC[C@H]1C(=O)N[C@H](C(=O)N[C@@H](CC(N)=O)C(=O)N[C@H](C(=O)NCC(=O)N[C@@H](CO)C(=O)N[C@@H](Cc1c[nH]cn1)C(=O)N[C@H](C(=O)N[C@@H](Cc1ccc(O)cc1)C(N)=O)[C@@H](C)O)C(C)C)[C@@H](C)O
B5: the “CTa receptor human EC50” value in assay [1] turned out to be 334 pM. For the same molecule, the “Amylin receptor human EC50” value in assay [2] was 67.5 pM. In assay [3], the “CTa receptor rat EC50” value came out at 2360 pM. Besides, the “Amylin receptor rat EC50” value in assay [4] is 38 pM.
